Experiment: soluble on expression in E. coli; label from the status in PepcDB or PDB records

Sequence | soluble on expression in E. coli
MSLKAFGFNQYGNSNVMEELNIPIPKIKPGEVLVKTTAFAINAFDIAVRNGQFRNNVTLLFPTILGTDGVGRIVKLGAGVHDYSIGDDVLARPGIGTYTEYFKVSVDHLGSRPSNYSPYEAAGLPLSGITAYNTLVHIAHVKQGQTVVILGSSGGVGSMLVQMAHALGLYVIGTDAESARETVLNLGASEFGAYDTERVSSKFKSMADILIDATNLGASIAGIQIIKPTGTYVSLTTLPKDRTLKPDVIYRQVIPRREYRDSDAFTTISLMIRNNQLHVPIDHLESFTLDGIRKGQSDVENGSPDGKVIVTLEGHHHHHH | not soluble
MSLKAIAVDMDGTFLDSKKTYDKPRFEAIFTELRNRDITFIAASGNQYAKLKSIFGDRDMYFISENGAVIYKGNELYNYKSFNRQVFQQVVDYLNMNQSIDQLVICGLKSAYILKHTSEAFKEDTRFYYHQLKEIDSLQQLPEDDYVKIAFNINRETHPNVDEEVATQFSNDIKLVSSGHDSIDIIMPNMTKGQALKRLLDKWEMSPSELMAFGDANNDKDMLAFAKHSYVMENSHDEELFNIASAVAPSNDKQGVLTIIEQEVLNKEGHHHHHH | soluble
MSLKAIIFDMDGVLVDSMRFQADAWAKAFQDAGINIVREDIYELEGSNDKRLIKSIFKEARKEPEPEHFERLPEKKRDLLEFDRIKPFEGIPECLDELKRHFRLAMVSGSNRNTVGKIVDKFFSGYFDVVINGSDLERGKPDPDPYLKALEMLGLTKNECMVIENAPLGITAAKRAGLYCVAVASMLEPEKVQHADLVLEDHASLFDYLKSLIPGKPQTEGHHHHHH | soluble
MSLKARFLLLAALLSGVAGAYTVKKGDTLYSLARGSGLTVDALMRLNGLSTPELRVGQVIKLPGEGAATPATPAPAAPTPATPAPAAPAPAPAVPTKLPTVATAANVLKLPGVTITAPKALKMGDGFALRLSGEQAANVTVRFPSELGEDVRQPNEELRPLWSSGQYIVPGRVVLGKTTPVIYEVRLGGDVVRGQIPVGDLGQRVQHLNLPPSISKVLQDPAREAEDAAVEQAYQRRTPQQWQQPFASALASGKATSSSFGQPRTYVAGGKVAYHYGTDYPARSGTAVLAINDGTVVIAGRYPVRGGLVVIDHGAGVVSLYFHQSKVTAKVGQQIKRGQKVGEVGSTGLSAGPHLHLEVRVRGEGTNPAGWMGKLWPEGHHHHHH | not soluble
MSLKASELKKGFAIISNGKTLLIKDIEVTTPGGRGGSKIYKLRCTDLNTGARVDERYKSDDVLDTVEMNKRPISFSYIDGDEYVFMNNDDYTPYNFKKDEIEDELLFITEEIQGMSVVLVDGEAVAIELPSSVEMVIEETDPSIKGASASSRTKPARMPTGLVVQVPEYIATGDRIVINTAERKFMNRAEGHHHHHH | soluble
MSLKAVFVYEPLGNENVKVEEVSEPKKEQGKVIIEVKKAGLNPIDYNVINGKIVYRLNPLPHIPGSEVYGIVKEDSGSFKKGERVIVYNRIFDGTCSQCISGNEHLCENGGIWGVVSNGGYSQLVQIDEKNVFRVPEDASDELAASIGVAALTSFRAIRISGCSPGRSILIYGASGNTGMFAVQLASMMGCDVYAVSRKDWIESFGAIEVFRPDNIPPDMKFDIIINPLGSLFWGDALKHLRTRGILVSFGVLTGREGSIDIADLYTGEKKILGSTGGTREDLRGLLEFMKTHELRVKIAREFKINEIKDALKYYSETHDGRILISMREGHHHHHH | not soluble
MSLKAVIFDLDGVITDTAEYHFLAWKHIAEQIDIPFDRDMNERLKGISREESLESILIFGGAETKYTNAEKQELMHRKNRDYQMLISKLTPEDLLPGIGRLLCQLKNENIKIGLASSSRNAPKILRRLAIIDDFHAIVDPTTLAKGKPDPDIFLTAAAMLDVSPADCAAIEDAEAGISAIKSAGMFAVGVGQGQPMLGADLVVRQTSDLTLELLHEEWEQYRIRESEGHHHHHH | soluble
MSLKDLVVGMELGYPPFEMSDKTGKASGISVDFLEAFAKKNGYKLVVKNIAWDGLIPALKTAKIDLIMSSMTITDKRKKVVDFSIPYAKANLAILTPLNSDITNIKDLDKKGKVLALKRGSTGHLYAVKNLKNATINLFDKENAAILEVIQGKADGFFYDQLTIYRTWQKHQDTTRAILAPFQENPEFWGIAVRKGDEALKDKLDNFIDESRKNGFLDFLGNKYLKDIKEGHHHHHH | soluble
MSLKFAAGFVLIDAPHSALNMLGIDESLPDRNVTRVKTLRRGGNRYVYISPQAWRYWWRITLKEYFNWELSPLFREEKQVFTAANPIKYPDDDVFGYMRAYKKNKVNVTVTRISPLKNTPLVSVLPDRSSLTIDEGYASRHEGDPVPYSQEFYSTVLKGAFSLDLDLVGRFTTKNKAGYKNLLTRDDIPKKGKGEDIVKEIKELEELARNVGVEIKDGEWIMPKEIRKKRSIETIKALRYLTGGAKQTQYHTDVTPKLFLGIIVNGGINPFISDIVREEKGEIILDAEALATRLEDFSDIIDSKLFLGYDMGFVRSLGLEIEAIKSTAGIEVVEGKVGEIIEKFAEEAGKYYIEGHHHHHH | soluble
MSLKGIVEKSVGDLETLAFDGRTYIEYLNAVTESEKALQSNHFELSLRTEATQGLVLWIGKVGERADYMALAIVDGHLQLSYDLGSQPVVLRSTVKVNTNRWLRVRAHREHREGSLQVGNEAQVTGSSPLGATQLDTDGALWLGGMQKLPVGQALPKAYGTGFVGCLRDVVVGHRQLHLLEDAVTKPELRPCPTEGHHHHHH | soluble
MSLKHHHNHHGEAGFKRKVDYLDRPERSEVLSPEDFLQAMPIGKTASILDLGAGTGFLTIPAAKLVDNTVFALDLDAKMLELIESKAKEAGLANVETLEASMDDIPLEANSVDVVLASLVLHEADSLADVLREVSRVVKTGGYFASLEFDTKGTDLKGPPMEIQISAEKLKEELAGFGFEVVKNWQLDEGMYVSIAVKKEGHHHHHH | soluble
MSLKIAIVNDMPMAVEALRRALAFDPSHEVVWVATNGAEAVKYCAELTPDLILMDLIMPVMDGVEATRRIMAESPCAIVIVTVDRQQNVHRVFEAMGHGALDVVDTPALGAGNAQEAAAPLLRKILNIGWLIGQRGSRVRSAPQPLRSGAPRQSLVAIGSSAGGPAALEVLLKGLPKDFAAAIVLVQHVDQVFAAGMAEWLSSASGLEVRLAREGEPPQSGKVLLAGTNHHIRLLKNGTLAYTAEPVNEIYRPSIDVFFESVASFWNGDAVGVLLTGMGRDGAQGLKLMRDQGYLTIAQDQNSSAVYGMPKAAAAIGAASEIRPLDKIAPRLLEIFAKEGHHHHHH | soluble
MSLKIIAFYLPQFHQIKENDRWWGKGFTEWTNTKSAQPLFSGHYQPREPYQDFYYDLTTPSVRKWQAEIAKAYGIYGFCYYHYWFKGKRLLETPFNEVLKMKEPDFPFCLSWANEPWTKSWDGLDKHILMPQDYGDISDWKEHFDYLLQAFQDERYIYIDDKPLFIIYRPGHIPDCEKMLNYWNALARENGLKGIYFAETLNSFPLPNINGFDASIQFEPFYTIAHDSSSDINKVIYDSDMQLNVWDYDKVWMYILQRSLPKKKTFPGAFVDWDNTARRKNANSSIFVGSTPEKFTIYLSKQIHRTYSFYNSEFLFINAWNEWAEGTYLEPDKKYGFSYLEGVKNAIDRGMKAYKKDEGHHHHHH | soluble
MSLKIKVGLIGFGRMGRFYLKEMQKSGRWDVAYICDINPDCRELAKQLSPESKILENEQEMFDDESVQVVGLFALADSRLDRIEKAIKYGKHIISEKPVSDTIDKEWKVVDITEKASCFSTVNLYLRNAWYHQTIKQFIDQGEIGELAILRICHMTPGLAPGEGHEYEGPAFHDCGMHYVDIARWYAGCEYKTWHAQGVNMWSYKDPWWVQCHGTFQNGVVFDITQGFVYGQLSKDQTHNSYVDIIGTKGIARMTHDFKTAVVDLRGVTQTHHIEKPFGGKNIDVLCDLFADSIETGIRNPQLPLIRDSAIASEYAWTFLHDAYTHDLPAIGEGHHHHHH | soluble
MSLKINAILDQSNASAEKVDAYQVQLTNGISEAKNIADEAGKEAVQIATDAGNQANETANQAMNNAKTAIMIAGNAVSTANNNKQEFDTLRNDFDQLVAEAGDSNPEIVQARTDTQGIKQATLANRLQIDLNDRMTKADGISLLAKPTTVKMKLDFNGKTAGNTATNANSYSTDFTAKILKKPTEVWEEVSQADYNKMASRDDEGVKTGSTQSGVIPQQLAAFNLVEAAKKLIPQMFETVTTDEAVAFIRQNVQFFTINQRVKAAAPNNQTIKIATYLPTTDNWVTQIQESAKEFGDFSIQINDQNFITDEGFIYLMSYTDSSNGVTPASLEVDYVGLHIGLSVDAQAVLAKSGFVQAEQLNTHMENQDNPHQVTAEQVGLGNVENYGFASDSEAVAGTLTSKYMHPKNVAEAIKGQAVTQTGDQEIAGVKNFVTMPTVNGVPLESSRMAIYEASGVGEVEAKYQAAFNKDNMKFVLIRVGNRVDAFVRCNLSDPTKLNNNLVKVFTVPTGYTLSTKITKGIWNLALTAMQYTFPQPNCAGLYEMGNQGILFGANRAGNIYLQGSWYTDDPFPTKEGHHHHHH | soluble
MSLKITIYDLAELSGVSASAVSAILNGNWKKRRISAKLAEKVTRIAEEQGYAINRQASMLRSKKSHVIGMIIPKYDNRYFGSIAERFEEMARERGLLPIITCTRRRPELEIEAVKAMLSWQVDWVVATGATNPDKISALCQQAGVPTVNLDLPGSLSPSVISDNYGGAKALTHKILANSARRRGELAPLTFIGGRSSDHNTSERLRGFHDAHRELGLSVPQANILAPGYSKGHVEDCLQERFGSAKTLLQGIFVNSTISLEGVVRWLSQVGLTGSEQPPMGCFDWDPFVYLLGHDIDMVQQDVPAMLDAVFSIIDAGEASQQRIEIPPRLMSSSEGHHHHHH | soluble
MSLKIYFLPMLLSLFFLGACDKNDEIIPEDADENFITSVVMTVDGKSYTADITDNTVTITVPYTVSLNNAEVEFKYTTSATIIPDPETVTDWDNERTFRVTSYNGDAREYTYKVVKSEIESDGDVELKTTEEVASFAATKTTVVKGNLIIGSDAEEAEKITDISALASLKEVTGNIVIRNSYNGADLTGLDNIVSAGGLQVGSTDVASKATELHMISMKALETLSGDISVYNDQVTYVLFEKLATIEGSVMFNASSLQSFEFPVLTTVGQDLNLQGLNEENTAAGSIASLEIPELTSVGGVLSVNNLAKLTSMSFLKLKETGGLDFHTVPVMLETINLPEIETVNGSIIMEANMEAPPTGSFVPQRNDVLQAFGGMDKLTTIKGQIKIKNFTALKQLPDWSKITTLGSITLDYLEDVSGTLLLPNARFETFGETAPQIEIINKVQLSKIETAEDLSNVNFVITSLTNNKFPEITFKNIKDFTCKPTTNNTDYTISTIQHVYGNLNVTGQMRSNAKFPDLEIIDGYGYIQIPMFASITMPVLKEVGGQFYLSGNFTSCNLPLLSKVCCSASPVYYKEGEGSLAISLQSKSLDIPELLHVGGEGLFVNKATGITCDKLQTIDGTLQIKSATSLSQETLSMEKLETLHGVVFDGLTKFTDYTFFGKFIENGMITGESWSVTKCGYNPTFQNMKDKQYTEGHHHHHH | soluble
MSLKKIGIIGAGGIARAHATALSTIKNAELVGVYDINQQNAESFVKTFGGKSFENVDELIDASEGLIVASPNFCHKEHALQALGKHKHVLCEKPMAISLEEASIMKDTAERLSVRASMGFNYRYLSYVNILKSLIINNELGNILSIKVHFKKNSALRRKKFTWRDDANSKKTSGSLGDLGIHLIDMVWYLFESDFITESVRAKMNTNVKTKEDKQVLVDDYAEIYGQLRNKVFVNIITSKCSVPEDCGFSIEVVGHKKEFKYHTGNPHVYKLIDGLNVVDCPVPQSLLNDPPNEFYGWADSFRSELINWIASTQNDWVEIPSFSDGFRSQEVLEMFFEKDSNSQPMSVSAVNEGHHHHHH | soluble
MSLKKITGDDVLIPLETPESMHKEYIQNYLNLTRNTGNLMLFAGDQKIEHLNEDFYGKDISKDDADPEHLFKIAENSKIGGFAVQFGLLSRYGRDHKDINYIVKLNSKTNLVDTNQKDPLSRALLDINDILEFKKNSGINIVGVGYTIYLGSEYESEMLSEASKIIYEAHKGGLVVILWIYPRGKAVKDEKDSELISGATGVAACLGADFVKVNYPKSENPAESFKEAVMAAGRTKVVCAGGSSTDIESFLKQLYEQIHISGASGNATGRNIHQKSLSDAVSMCNAIYAITIDGKTVSEALNIYNERKSEGHHHHHH | soluble
